Data from article PMC12416549 (2024).

T1: TNFR1 (Homo sapiens, UniProt P19438)
T1 chain: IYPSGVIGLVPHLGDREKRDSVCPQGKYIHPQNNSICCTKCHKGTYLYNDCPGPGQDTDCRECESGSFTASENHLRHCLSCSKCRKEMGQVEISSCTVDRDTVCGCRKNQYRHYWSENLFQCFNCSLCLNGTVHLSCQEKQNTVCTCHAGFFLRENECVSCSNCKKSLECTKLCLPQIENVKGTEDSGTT


Biological target: T1, TNFR1
Assay: yeast display SC50

| Binder | apparent Kd (screen) [nM] |
| --- | --- |
| A63C (designed binder) SMEEEVEKAAKEYEKKKKEAIEKHLEKLKAKDKEAAERFLKELEEAAKEYAKDEAKTMSEEECKRRAKKYKEKVLLSELSEEEQKEIKEAEEKLVRTILKYVEEAAK | 26.9 |
| K31Y (designed binder) SMEEEVEKAAKEYEKKKKEAIEKHLEKLKAYDKEAAERFLKELEEAAKEYAKDEAKTMSEEEAKRRAKKYKEKVLLSELSEEEQKEIKEAEEKLVRTILKYVEEAAK | 0.49 |
| K48M (designed binder) SMEEEVEKAAKEYEKKKKEAIEKHLEKLKAKDKEAAERFLKELEEAAMEYAKDEAKTMSEEEAKRRAKKYKEKVLLSELSEEEQKEIKEAEEKLVRTILKYVEEAAK | 0.653 |
| E5D (designed binder) SMEEDVEKAAKEYEKKKKEAIEKHLEKLKAKDKEAAERFLKELEEAAKEYAKDEAKTMSEEEAKRRAKKYKEKVLLSELSEEEQKEIKEAEEKLVRTILKYVEEAAK | 0.653 |
| K41N (designed binder) SMEEEVEKAAKEYEKKKKEAIEKHLEKLKAKDKEAAERFLNELEEAAKEYAKDEAKTMSEEEAKRRAKKYKEKVLLSELSEEEQKEIKEAEEKLVRTILKYVEEAAK | 0.49 |
| E45V (designed binder) SMEEEVEKAAKEYEKKKKEAIEKHLEKLKAKDKEAAERFLKELEVAAKEYAKDEAKTMSEEEAKRRAKKYKEKVLLSELSEEEQKEIKEAEEKLVRTILKYVEEAAK | 1.86 |
| D32H (designed binder) SMEEEVEKAAKEYEKKKKEAIEKHLEKLKAKHKEAAERFLKELEEAAKEYAKDEAKTMSEEEAKRRAKKYKEKVLLSELSEEEQKEIKEAEEKLVRTILKYVEEAAK | 0.718 |
| D32Q (designed binder) SMEEEVEKAAKEYEKKKKEAIEKHLEKLKAKQKEAAERFLKELEEAAKEYAKDEAKTMSEEEAKRRAKKYKEKVLLSELSEEEQKEIKEAEEKLVRTILKYVEEAAK | 1.16 |
| L28W (designed binder) SMEEEVEKAAKEYEKKKKEAIEKHLEKWKAKDKEAAERFLKELEEAAKEYAKDEAKTMSEEEAKRRAKKYKEKVLLSELSEEEQKEIKEAEEKLVRTILKYVEEAAK | 0.49 |
| E61K (designed binder) SMEEEVEKAAKEYEKKKKEAIEKHLEKLKAKDKEAAERFLKELEEAAKEYAKDEAKTMSEKEAKRRAKKYKEKVLLSELSEEEQKEIKEAEEKLVRTILKYVEEAAK | 1.69 |
| A30S (designed binder) SMEEEVEKAAKEYEKKKKEAIEKHLEKLKSKDKEAAERFLKELEEAAKEYAKDEAKTMSEEEAKRRAKKYKEKVLLSELSEEEQKEIKEAEEKLVRTILKYVEEAAK | 0.718 |
| L28Y (designed binder) SMEEEVEKAAKEYEKKKKEAIEKHLEKYKAKDKEAAERFLKELEEAAKEYAKDEAKTMSEEEAKRRAKKYKEKVLLSELSEEEQKEIKEAEEKLVRTILKYVEEAAK | 0.446 |
| S1L (designed binder) LMEEEVEKAAKEYEKKKKEAIEKHLEKLKAKDKEAAERFLKELEEAAKEYAKDEAKTMSEEEAKRRAKKYKEKVLLSELSEEEQKEIKEAEEKLVRTILKYVEEAAK | 1.4 |
| K64I (designed binder) SMEEEVEKAAKEYEKKKKEAIEKHLEKLKAKDKEAAERFLKELEEAAKEYAKDEAKTMSEEEAIRRAKKYKEKVLLSELSEEEQKEIKEAEEKLVRTILKYVEEAAK | 1.05 |
| E62H (designed binder) SMEEEVEKAAKEYEKKKKEAIEKHLEKLKAKDKEAAERFLKELEEAAKEYAKDEAKTMSEEHAKRRAKKYKEKVLLSELSEEEQKEIKEAEEKLVRTILKYVEEAAK | 0.79 |
| L40F (designed binder) SMEEEVEKAAKEYEKKKKEAIEKHLEKLKAKDKEAAERFFKELEEAAKEYAKDEAKTMSEEEAKRRAKKYKEKVLLSELSEEEQKEIKEAEEKLVRTILKYVEEAAK | 0.869 |
| V6C (designed binder) SMEEECEKAAKEYEKKKKEAIEKHLEKLKAKDKEAAERFLKELEEAAKEYAKDEAKTMSEEEAKRRAKKYKEKVLLSELSEEEQKEIKEAEEKLVRTILKYVEEAAK | 1.27 |

Continued, values first:

| apparent Kd (screen) [nM] | Binder |
| --- | --- |
| 1.05 | K93L (designed binder) SMEEEVEKAAKEYEKKKKEAIEKHLEKLKAKDKEAAERFLKELEEAAKEYAKDEAKTMSEEEAKRRAKKYKEKVLLSELSEEEQKEIKEAEELLVRTILKYVEEAAK |
| 2.48 | L76E (designed binder) SMEEEVEKAAKEYEKKKKEAIEKHLEKLKAKDKEAAERFLKELEEAAKEYAKDEAKTMSEEEAKRRAKKYKEKVLESELSEEEQKEIKEAEEKLVRTILKYVEEAAK |
| 2.73 | K68W (designed binder) SMEEEVEKAAKEYEKKKKEAIEKHLEKLKAKDKEAAERFLKELEEAAKEYAKDEAKTMSEEEAKRRAWKYKEKVLLSELSEEEQKEIKEAEEKLVRTILKYVEEAAK |
| 5.84 | S80E (designed binder) SMEEEVEKAAKEYEKKKKEAIEKHLEKLKAKDKEAAERFLKELEEAAKEYAKDEAKTMSEEEAKRRAKKYKEKVLLSELEEEEQKEIKEAEEKLVRTILKYVEEAAK |
| 0.446 | K88D (designed binder) SMEEEVEKAAKEYEKKKKEAIEKHLEKLKAKDKEAAERFLKELEEAAKEYAKDEAKTMSEEEAKRRAKKYKEKVLLSELSEEEQKEIDEAEEKLVRTILKYVEEAAK |
| 1.16 | K100H (designed binder) SMEEEVEKAAKEYEKKKKEAIEKHLEKLKAKDKEAAERFLKELEEAAKEYAKDEAKTMSEEEAKRRAKKYKEKVLLSELSEEEQKEIKEAEEKLVRTILHYVEEAAK |
| 2.73 | K107C (designed binder) SMEEEVEKAAKEYEKKKKEAIEKHLEKLKAKDKEAAERFLKELEEAAKEYAKDEAKTMSEEEAKRRAKKYKEKVLLSELSEEEQKEIKEAEEKLVRTILKYVEEAAC |
| 0.49 | S77H (designed binder) SMEEEVEKAAKEYEKKKKEAIEKHLEKLKAKDKEAAERFLKELEEAAKEYAKDEAKTMSEEEAKRRAKKYKEKVLLHELSEEEQKEIKEAEEKLVRTILKYVEEAAK |
| 3.3 | I87C (designed binder) SMEEEVEKAAKEYEKKKKEAIEKHLEKLKAKDKEAAERFLKELEEAAKEYAKDEAKTMSEEEAKRRAKKYKEKVLLSELSEEEQKECKEAEEKLVRTILKYVEEAAK |
